Laboratory results taken from patent US20110166064A1.

Biological target: Insulin-like Growth Factor I Receptor (IGF-1R) (UniProt P08069)
Test: competitive displacement of 125I-IGF-I from IGF-1R, FIG. 9B

Chain of Insulin-like Growth Factor I Receptor (IGF-1R) (P08069 31-1367 limits assumed): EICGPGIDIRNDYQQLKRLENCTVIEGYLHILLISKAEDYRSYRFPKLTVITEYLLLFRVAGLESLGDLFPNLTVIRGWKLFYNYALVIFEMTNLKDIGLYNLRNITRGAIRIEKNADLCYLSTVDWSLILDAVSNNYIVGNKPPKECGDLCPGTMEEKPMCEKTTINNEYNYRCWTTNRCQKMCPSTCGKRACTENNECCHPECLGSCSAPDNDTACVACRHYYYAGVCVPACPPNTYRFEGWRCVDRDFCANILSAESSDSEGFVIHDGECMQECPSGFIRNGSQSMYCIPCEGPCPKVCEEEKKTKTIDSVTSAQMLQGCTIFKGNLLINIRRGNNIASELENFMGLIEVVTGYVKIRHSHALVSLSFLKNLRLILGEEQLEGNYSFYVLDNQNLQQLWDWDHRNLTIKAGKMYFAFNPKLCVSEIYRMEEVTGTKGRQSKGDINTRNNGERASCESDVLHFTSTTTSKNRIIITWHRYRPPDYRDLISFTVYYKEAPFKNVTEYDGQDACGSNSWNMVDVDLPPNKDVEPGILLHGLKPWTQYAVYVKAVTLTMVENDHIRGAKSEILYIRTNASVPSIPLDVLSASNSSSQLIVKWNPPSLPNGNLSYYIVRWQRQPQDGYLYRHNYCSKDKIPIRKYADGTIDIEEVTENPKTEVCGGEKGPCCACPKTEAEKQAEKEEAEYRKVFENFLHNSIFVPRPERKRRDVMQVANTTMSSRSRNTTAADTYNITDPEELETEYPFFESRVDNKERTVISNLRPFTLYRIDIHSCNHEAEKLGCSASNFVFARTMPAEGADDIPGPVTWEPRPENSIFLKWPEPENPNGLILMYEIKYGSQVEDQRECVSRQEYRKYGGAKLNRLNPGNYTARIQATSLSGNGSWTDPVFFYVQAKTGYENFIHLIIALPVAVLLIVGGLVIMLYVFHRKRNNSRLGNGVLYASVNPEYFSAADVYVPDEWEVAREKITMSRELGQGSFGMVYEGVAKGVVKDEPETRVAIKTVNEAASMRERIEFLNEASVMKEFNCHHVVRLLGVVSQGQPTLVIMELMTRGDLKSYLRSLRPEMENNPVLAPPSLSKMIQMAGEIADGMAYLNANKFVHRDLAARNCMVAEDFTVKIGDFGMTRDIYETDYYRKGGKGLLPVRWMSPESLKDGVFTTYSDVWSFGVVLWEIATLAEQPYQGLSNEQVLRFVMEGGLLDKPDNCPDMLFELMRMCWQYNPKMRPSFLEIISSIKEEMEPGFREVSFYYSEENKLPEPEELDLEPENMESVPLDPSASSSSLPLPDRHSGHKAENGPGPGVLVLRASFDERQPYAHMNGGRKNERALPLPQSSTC

4Cl-Phe^B24-KP-insulin (ligand; para-monochloro-phenylalanine (4Cl-Phe) at B24; other documents disagree on this pair)
fold reduction of cross-binding relative to KP-insulin or wild-type insulin: 3 fold
